Experimental findings from patent US20160009823A1 (Hoffmann-La Roche, published 2016) are described below.

Bounds are passed on as bounds.

For test [1], the target named is mono-digoxygenated protein DIG-myoglobin. In words: SPR (Biacore), DIG-Myoglobin as analyte, replicate. For orientation: SPR reads the build-up and loss of mass on a sensor chip optically.
The target of test [2] is digoxygenated protein Dig-BP4. Put plainly: SPR (Biacore); unit differs from Table 3 (33 pM).
In test [3] the target is mono-digoxygenated protein DIG-myoglobin. Put plainly: SPR (Biacore), DIG-Myoglobin as analyte.
Test [4] addresses digoxygenated protein Dig-BP4. In words: SPR (Biacore), antibody captured by anti-mouse IgG, DIG-BP4 as analyte.
Test [5] has as its target mono-digoxygenated protein DIG-myoglobin. Put plainly: SPR (Biacore), DIG-Myoglobin as analyte. This is another data set of the same source.
Test [6] has as its target T1, recombinantly produced soluble extracellular domain of the RTK Her2 (UniProt P04626 23-652).
T1 construct: extracellular domain; also called Her2-ECD; Her2ECD
Put plainly: SPR (BiaCore), zoom; AKH-5 captured, Her2 and siRNA-DIG in both orders.

Test [7] concerns the target digoxygenated protein Dig-BP4. In words: SPR (Biacore), antibody captured by anti-human IgG, DIG-BP4 as analyte.
A further test deals with T2, mouse VEGFR2-Fc.
T2 chain: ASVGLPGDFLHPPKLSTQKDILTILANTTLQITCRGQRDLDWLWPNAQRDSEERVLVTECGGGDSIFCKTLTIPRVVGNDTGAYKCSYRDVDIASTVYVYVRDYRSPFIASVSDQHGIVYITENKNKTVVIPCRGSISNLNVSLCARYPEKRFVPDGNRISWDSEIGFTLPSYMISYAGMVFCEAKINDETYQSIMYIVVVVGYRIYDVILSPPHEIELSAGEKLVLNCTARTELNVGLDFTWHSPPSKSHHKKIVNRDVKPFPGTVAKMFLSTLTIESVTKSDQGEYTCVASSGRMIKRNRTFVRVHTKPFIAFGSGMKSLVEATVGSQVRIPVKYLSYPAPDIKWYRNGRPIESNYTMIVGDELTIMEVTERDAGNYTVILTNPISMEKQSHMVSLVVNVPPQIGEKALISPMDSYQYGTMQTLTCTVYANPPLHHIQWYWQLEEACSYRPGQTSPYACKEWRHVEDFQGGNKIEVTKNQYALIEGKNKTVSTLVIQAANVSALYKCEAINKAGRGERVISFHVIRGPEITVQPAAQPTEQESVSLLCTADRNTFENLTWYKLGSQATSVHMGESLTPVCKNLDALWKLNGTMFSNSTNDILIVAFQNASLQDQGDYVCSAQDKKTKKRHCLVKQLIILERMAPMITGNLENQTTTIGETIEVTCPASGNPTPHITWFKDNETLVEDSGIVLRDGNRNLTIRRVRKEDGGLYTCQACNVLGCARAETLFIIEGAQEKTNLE
In words: SPR, drawn table under the head 'Affinity for DIG-siRNA' with a Capture column.

The next test concerns the target T3, human VEGFR2-Fc.
T3 chain: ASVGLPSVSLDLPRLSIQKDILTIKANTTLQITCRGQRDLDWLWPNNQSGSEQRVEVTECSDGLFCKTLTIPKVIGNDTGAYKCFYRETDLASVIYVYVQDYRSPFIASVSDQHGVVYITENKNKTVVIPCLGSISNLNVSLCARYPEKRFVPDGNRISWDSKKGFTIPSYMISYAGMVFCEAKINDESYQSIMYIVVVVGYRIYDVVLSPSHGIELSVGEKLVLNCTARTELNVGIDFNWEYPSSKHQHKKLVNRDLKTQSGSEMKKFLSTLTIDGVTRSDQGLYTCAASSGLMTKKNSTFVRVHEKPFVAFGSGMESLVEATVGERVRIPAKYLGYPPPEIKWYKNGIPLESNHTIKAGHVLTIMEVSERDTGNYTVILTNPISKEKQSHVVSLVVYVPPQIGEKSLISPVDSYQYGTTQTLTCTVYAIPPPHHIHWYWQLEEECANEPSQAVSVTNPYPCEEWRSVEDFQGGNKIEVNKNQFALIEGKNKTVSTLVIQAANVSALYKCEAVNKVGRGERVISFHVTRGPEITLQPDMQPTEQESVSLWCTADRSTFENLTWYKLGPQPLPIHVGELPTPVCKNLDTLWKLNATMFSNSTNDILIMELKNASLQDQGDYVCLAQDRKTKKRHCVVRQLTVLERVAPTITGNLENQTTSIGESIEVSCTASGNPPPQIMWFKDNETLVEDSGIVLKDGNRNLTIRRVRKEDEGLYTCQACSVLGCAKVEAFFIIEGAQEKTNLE
Described as above.

A further test has as its target T4, human CD33-Fc fusion (human, UniProt P20138 18-259).
T4 construct: not shown: Fc part not described
Put plainly: SPR, <CD33>-<DIG> on human CD33-Fc fusion as ligand, then DIG-siRNA.

Chain of mono-digoxygenated protein DIG-myoglobin (P68082 2-154): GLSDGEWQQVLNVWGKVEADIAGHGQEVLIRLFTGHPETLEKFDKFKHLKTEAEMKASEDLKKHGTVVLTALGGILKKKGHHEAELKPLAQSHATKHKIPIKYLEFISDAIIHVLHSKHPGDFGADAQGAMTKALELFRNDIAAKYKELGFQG
T4 sequence (P20138 18-259): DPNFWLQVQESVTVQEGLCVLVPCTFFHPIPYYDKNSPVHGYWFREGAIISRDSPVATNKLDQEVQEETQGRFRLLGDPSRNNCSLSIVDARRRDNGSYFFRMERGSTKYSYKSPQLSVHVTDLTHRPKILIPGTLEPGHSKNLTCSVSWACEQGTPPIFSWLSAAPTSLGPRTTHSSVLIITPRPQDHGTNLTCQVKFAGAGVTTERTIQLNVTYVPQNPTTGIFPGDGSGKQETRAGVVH

B1: hybridoma-derived murine <Dig> 19-11 antibody (antibody, V domains shown)
VH: EVQLVESGGGLVKPGGSLKLSCAVSGFTFSDYAMSWIRQTPENRLEWVASINIGATYAYYPDSVKGRFTISRDNAKNTLFLQMSSLGSEDTAMYYCARPGSPYEYDKAYYSMAYWGPGTSVTVSS
VL: DVQMTQSTSSLSASLGDRVTISCRASQDIKNYLNWYQQKPGGTVKLLIYYSSTLLSGVPSRFSGRGSGTDFSLTITNLEREDIATYFCQQSITLPPTFGGGTKLEIK
notes: also called murine DIG-IgG 19-11; <DIG>M-19-11
Usually Kd stands for the free concentration of one partner at which half of the binding sites on the other are occupied at equilibrium, for simple one-to-one binding. Read a high Kd as a looser complex. As a reminder, the koff is the rate constant with which the complex falls apart. A low value points to a long-lived complex. As a reminder, the kon is the rate constant with which the complex forms. Turning to B1, the Kd in test [1] was 0.295 nM; in test [2], 33 nM; in test [4], 0.033 nM; in test [5] it was 0.386 nM. Also, the koff amounted to 0.000675 s⁻¹ in test [1] and 0.000676 s⁻¹ in test [5]. The kon is 2.28e+06 M⁻¹ s⁻¹ in test [1] and 1.75e+06 M⁻¹ s⁻¹ in test [5]. In addition, the “fold better affinity than <DIG>-hu2 and the disulfide-stabilized <DIG> scFv” value in test [3] was ~100 fold.

B2: AKH-5 (bispecific antibody)
chain: QVQLLQSGAELKKPGESLKISCKGSGYSFTSYWIAWVRQMPGKGLEYMGLIYPGDSDTKYSPSFQGQVTISVDKSVSTAYLQWSSLKPSDSAVYFCARHDVGYCSSSNCAKWPEYFQHWGQGTLVTVSSGGGGSGGGGSGGGGSGGGGSQSVLTQPPSVSAAPGQKVTISCSGSSSNIGNNYVSWYQQLPGTAPKLLIYGHTNRPAGVPDRFSGSKSGTSASLAISGFRSEDEADYYCASWDYTLSGWVFGGGTKLTVLGGGGGSGGSLAALTAHQACHLPLETFTRHRQPRGWEQLEQCGYPVQRLVALYLAARLSWNQVDQVIRNALASPGSGGDLGEAIREQPEQARLALTLAAAESERFVRQGTGNDGGGGSGGGGSQVQLVESGGGLVKPGGSLRLSCAASGFTFSDYAMSWIRQAPGKCLEWVSSINIGATYIYYADSVKGRFTISRDNAKNSLYLQMNSLRAEDTAVYYCARPGSPYEYDKAYYSMAYWGQGTTVTVSSGGGGSGGGGSGGGGSGGGGSDIQMTQSPSSLSASVGDRVTITCRASQDIKNYLNWYQQKPGKAPKLLIYYSSTLLSGVPSRFSGSGSGTDFTLTISSLQPEDFATYYCQQSITLPPTFGCGTKVEIKHHHHHH
notes: also called <HER2> scFv-PExII-<DIG> scFv-His6; drawn as <Her2> - PExI - <DIG> - 6xHis
B2: in test [6], the binding result is given as “binds”.

B3: recombinant humanized <Dig> IgG antibody (antibody, V domains shown)
VH: QVQLVESGGGLVKPGGSLRLSCAASGFTFSDYAMSWIRQAPGKGLEWVSSINIGATYIYYADSVKGRFTISRDNAKNSLYLQMNSLRAEDTAVYYCARPGSPYEYDKAYYSMAYWGQGTTVTVSS
VL: DIQMTQSPSSLSASVGDRVTITCRASQDIKNYLNWYQQKPGKAPKLLIYYSSTLLSGVPSRFSGSGSGTDFTLTISSLQPEDFATYYCQQSITLPPTFGGGTKVEIKR
notes: also called hu<DIG> IgG; <DIG>hu2; not shown: hinge-CH2-CH3 of human IgG1
In test [1], B3 gave a Kd of 11.8 nM, a koff of 0.00881 s⁻¹ and a kon of 749000 M⁻¹ s⁻¹. In [5], this molecule had a Kd of 15.8 nM, a koff of 0.00982 s⁻¹ and a kon of 620000 M⁻¹ s⁻¹. The Kd in test [7] was < 0.076 nM.

B4: <VEGFR2(D1F7)-DIG>_001 (bispecific antibody, human IgG1, kappa)
heavy: not shown
light: QSVLTQPPSASGTPGQRVTISCSGSTSNIGTNTANWFQQLPGTAPKLLIHNNNQRPSGVPDRFSGSKSGTSASLAISGLQSEDEADYYCAAWDDSLNGHWVFGGGTKLTVLRTVAAPSVFIFPPSDEQLKSGTASVVCLLNNFYPREAKVQWKVDNALQSGNSQESVTEQDSKDSTYSLSSTLTLSKADYEKHKVYACEVTHQGLSSPVTKSFNRGEC
Take B4: the binding result with mouse VEGFR2-Fc and with human VEGFR2-Fc was “binds” in each case.

B5: bispecific <CD33>-<DIG> antibody (bispecific antibody, human IgG1, kappa)
heavy: not shown
light: DIQLTQSPSTLSASVGDRVTITCRASESLDNYGIRFLTWFQQKPGKAPKLLMYAASNQGSGVPSRFSGSGSGTEFTLTISSLQPDDFATYYCQQTKEVPWSFGQGGTKVEVKEIKRTVAAPSVFIFPPSDEQLKSGTASVVCLLNNFYPREAKVQWKVDNALQSGNSQESVTEQDSKDSTYSLSSTLTLSKADYEKHKVYACEVTHQGLSSPVTKSFNRGEC
Regarding B5, in the test with human CD33-Fc fusion, the binding result is reported as “binds”.
